The target in assay [1] is T1, human FcRn (R&D Systems Cat. No. 8639-Fc) (human, UniProt P55899 24-297; P61769 21-119). The assay can be described thus: SPR, FcRn captured; Mean. On the technique in general: SPR reads the build-up and loss of mass on a sensor chip optically.
Assay [2] concerns the target T1, human FcRn (R&D Systems Cat. No. …). The assay can be described thus: SPR, FcRn captured; Expt 1.
The target is the same in assay [3]. Put plainly: SPR, FcRn captured; Expt 2.
The target is the same in assay [4]. The assay can be described thus: SPR, FcRn captured; Expt 3.
In assay [5] the target is T2, Human C1q (Sigma Cat. No. 20476), HRP-labelled (human, UniProt P02745 23-245; P02746 28-253; P02747 29-245).
T2 construct: Coupled to horse-radish peroxidase with Lightning-Link kit; also called HRP-labelled C1q
The assay can be described thus: ELISA, antibody coated, HRP-C1q; Expt 1, buffer alone 0.061. Background: An ELISA detects its analyte on a solid surface through an enzyme-linked reagent.

A further assay deals with T3, human FcγRIIIA (F158) (human, UniProt P08637 17-208).
T3 construct: bought; F158 allele
T3 sequence (P08637 17-208 limits assumed): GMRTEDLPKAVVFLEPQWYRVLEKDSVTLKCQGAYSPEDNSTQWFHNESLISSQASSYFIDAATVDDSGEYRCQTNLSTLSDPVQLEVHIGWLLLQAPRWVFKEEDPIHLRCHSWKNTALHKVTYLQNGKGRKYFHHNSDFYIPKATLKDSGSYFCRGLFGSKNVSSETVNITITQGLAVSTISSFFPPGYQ
Put plainly: SPR, FcγRIIIA captured. Further: test concentration or dose not given here.

Assay [6] deals with T4, Histidine-tagged recombinant human FcγRI (CD64) (human, UniProt P12314 16-288, limits assumed).
T4 construct: bought
Put plainly: SPR, His-FcγRI captured; mean.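 Further: biacore T200 SPR at 25 °C, anti-His surface capturing FcγRI, Fc-variant antibodies injected at 100 µg/mL for 1 min, signal near injection end minus third buffer blank, three repeats.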

The target of assay [7] is T4, Histidine-tagged recombinant human …. Put plainly: SPR, His-FcγRI captured; Expt 1.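 Further: SPR at 25 °C on anti-His antibody chip capturing FcγRI, Fc-variant antibodies injected at 100 µg/mL for 1 min, signal near end of injection minus buffer blank.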
Assay [8] has the same target. Put plainly: SPR, His-FcγRI captured; Expt 3.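 Further: biacore T200 SPR at 25 °C, Fc-variant antibodies at 100 µg/mL flowed 1 min over anti-His-captured FcγRI, signal taken just before injection end minus a buffer blank cycle; antibody analyte injected at 100 µg/mL for 1 min.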
Assay [9] has the same target. Put plainly: SPR, His-FcγRI captured; Expt 2.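 Further: biacore T200 SPR at 25 °C, Fc-variant antibodies at 100 µg/mL flowed 1 min over anti-His-captured receptor, signal read near injection end minus third buffer blank; antibody analyte injected at 100 µg/mL for 1 min.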

Changes are numbered by the printed parent chain. Numbers in names are those of the source.

T1 sequence (P55899 24-297 limits assumed, chain 1 of 2): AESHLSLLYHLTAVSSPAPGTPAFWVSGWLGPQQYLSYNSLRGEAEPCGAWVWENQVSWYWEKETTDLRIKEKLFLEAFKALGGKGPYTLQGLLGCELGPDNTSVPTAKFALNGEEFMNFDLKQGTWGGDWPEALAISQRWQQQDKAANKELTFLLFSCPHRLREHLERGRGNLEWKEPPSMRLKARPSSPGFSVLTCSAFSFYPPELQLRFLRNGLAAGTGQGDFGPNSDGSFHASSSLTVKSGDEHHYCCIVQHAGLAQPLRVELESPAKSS
T1 sequence (P61769 21-119 limits assumed, chain 2 of 2): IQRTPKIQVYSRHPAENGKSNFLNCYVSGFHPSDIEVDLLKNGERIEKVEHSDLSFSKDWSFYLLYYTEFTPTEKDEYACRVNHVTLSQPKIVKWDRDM

B1: anti-CD20 (rituximab) human IgG1 L234Q/L235V/G236R (antibody)
heavy: QVQLQQPGAELVKPGASVKMSCKASGYTFTSYNMHWVKQTPGRGLEWIGAIYPGNGDTSYNQKFKGKATLTADKSSSTAYMQLSSLTSEDSAVYYCARSTYYGGDWYFNVWGAGTTVTVSSASTKGPSVFPLAPSSKSTSGGTAALGCLVKDYFPEPVTVSWNSGALTSGVHTFPAVLQSSGLYSLSSVVTVPSSSLGTQTYICNVNHKPSNTKVDKKVEPKSCDKTHTCPPCPAPEQVRGPSVFLFPPKPKDTLMISRTPEVTCVVVDVSHEDPEVKFNWYVDGVEVHNAKTKPREEQYNSTYRVVSVLTVLHQDWLNGKEYKCKVSNKALPAPIEKTISKAKGQPREPQVYTLPPSRDELTKNQVSLTCLVKGFYPSDIAVEWESNGQPENNYKTTPPVLDSDGSFFLYSKLTVDKSRWQQGNVFSCSVMHEALHNHYTQKSLSLSPGK
light: QIVLSQSPAILSASPGEKVTMTCRASSSVSYIHWFQQKPGSSPKPWIYATSNLASGVPVRFSGSGSGTSYSLTISRVEAEDAATYYCQQWTSNPPTFGGGTKLEIKRTVAAPSVFIFPPSDEQLKSGTASVVCLLNNFYPREAKVQWKVDNALQSGNSQESVTEQDSKDSTYSLSSTLTLSKADYEKHKVYACEVTHQGLSSPVTKSFNRGEC
notes: EU numbering; copies: 2 + 2
As to B1, the “Corrected and normalised response (% of wild-type reference)” value was 97.1 % of wild-type reference in assay [1], 97.3 % of wild-type reference in assay [2], 96.6 % of wild-type reference in [3] and 97.4 % of wild-type reference in assay [4]. The “Mean Absorbance” value in [5] was 0.032 absorbance (450 nm).

B2: anti-CD20 human IgG1 L234S/L235G/G236R (antibody)
heavy: B1 heavy with Q238S, V239G
light: B1 light
notes: also called 2-47; 1-140
As for B2, the “Corrected response (RU)” value with human FcγRIIIA (F158) amounted to 3.8 RU; in assay [7] it was 2.6 RU; in assay [8], 3.7 RU. Further, the “Corrected response (RU), Mean” value in [6] is 2.6 RU.

B3: anti-CD20 human IgG1 L234R/L235I/G236R (antibody)
heavy: B1 heavy with Q238R, V239I
light: B1 light
notes: also called 2-39
Turning to B3, the figures for the “Corrected response (RU)” value (with human FcγRIIIA (F158); in [7]; in assay [9]) were 2.7 RU, -0.8 RU and -0.2 RU, respectively. Also, the “Corrected response (RU), Mean” value in assay [6] worked out at 0.1 RU.

B4: anti-CD20 human IgG1 L234D/L235K/G236R (antibody)
heavy: B1 heavy with Q238D, V239K
light: B1 light
notes: also called 2-7; 1-23
As to B4, the “Corrected response (RU)” value with human FcγRIIIA (F158) is 3.7 RU; in [7], -1.4 RU; in [9], 0.1 RU; in assay [8] it was 1.8 RU. In [6], the “Corrected response (RU), Mean” value amounted to 0.2 RU.

B5: anti-CD20 human IgG1 L234R/L235K/G236R (antibody)
heavy: B1 heavy with Q238R, V239K
light: B1 light
notes: also called 2-40
For B5, the “Corrected response (RU)” value with human FcγRIIIA (F158) came to 4.4 RU; in assay [7], 0 RU; in [9] it was 2.4 RU; in assay [8], 3.9 RU.

B6: anti-CD20 (rituximab) human IgG1 L234R/L235D/G236R (antibody)
heavy: B1 heavy with Q238R, V239D
light: B1 light
notes: EU numbering; copies: 2 + 2
Take B6: the “Corrected and normalised response (% of wild-type reference)” value is 95.6 % of wild-type reference in [1], 95.5 % of wild-type reference in [2], 95.4 % of wild-type reference in [3] and 96 % of wild-type reference in assay [4]. Further, the “Mean Absorbance” value in [5] is 0.038 absorbance (450 nm).

B7: anti-CD20 human IgG1 L234K/L235S/G236R (antibody)
heavy: B1 heavy with Q238K, V239S
light: B1 light
notes: also called 2-24; 1-89
As to B7, the “Corrected response (RU)” value with human FcγRIIIA (F158) was 7.3 RU; in assay [7], -1.7 RU; in [9] it was 1.1 RU; in assay [8], 4.1 RU.

B8: anti-CD20 human IgG1 L234A/L235S/G236R (antibody)
heavy: not shown
light: B1 light
notes: also called 2-4; 1-14
Consider B8, for which the “Corrected response (RU)” value with human FcγRIIIA (F158) is 6 RU; in [7], 0 RU; in assay [9], -1.2 RU; in [8], 2.4 RU. Further, in assay [6], the “Corrected response (RU), Mean” value was 0.4 RU.

B9: anti-CD20 human IgG1 L234T/L235T/G236R (antibody)
heavy: B1 heavy with Q238T, V239T
light: B1 light
notes: also called 2-63; 1-165
Regarding B9, the “Corrected response (RU)” value with human FcγRIIIA (F158) was 17.1 RU; in [7] it was 1.3 RU.

B10: anti-CD20 human IgG1 L234K/L235R/G236R (antibody)
heavy: B1 heavy with Q238K, V239R
light: B1 light
notes: also called 2-23; 1-88
As to B10, the “Corrected response (RU)” value in the assay with human FcγRIIIA (F158) came out at 7.1 RU; in assay [7] it was 0.6 RU; in [8], 3.2 RU. In addition, the “Corrected response (RU), Mean” value in assay [6] was 2.2 RU.

B11: anti-CD20 human IgG1 L234Q/L235A/G236R (antibody)
heavy: not shown
light: B1 light
notes: also called 2-27
In the case of B11, the “Corrected response (RU)” value in the assay with human FcγRIIIA (F158) turned out to be 4.4 RU; in assay [8] it was 3.6 RU. The “Corrected response (RU), Mean” value in assay [6] was 2.2 RU.

B12: anti-CD20 human IgG1 L234R/L235R/G236R (antibody)
heavy: B1 heavy with Q238R, V239R
light: B1 light
notes: also called 2-43
As to B12, the “Corrected response (RU)” value in the assay with human FcγRIIIA (F158) is 10.2 RU; in assay [7], -0.4 RU; in [9] it was 1.8 RU. The “Corrected response (RU), Mean” value in assay [6] was found to be 0.7 RU.

B13: anti-CD20 human IgG1 L234S/L235R/G236R (antibody)
heavy: B1 heavy with Q238S, V239R
light: B1 light
notes: also called 2-51
As to B13, the “Corrected response (RU)” value was 2.4 RU with human FcγRIIIA (F158), -1.1 RU in assay [7] and 1.6 RU in assay [8]. In assay [6], the “Corrected response (RU), Mean” value was 0.8 RU.

B14: anti-CD20 human IgG1 L234K/L235V/G236R (antibody)
heavy: B1 heavy with Q238K
light: B1 light
notes: also called 2-26; 1-91
Take B14: the “Corrected response (RU)” value in the assay with human FcγRIIIA (F158) is 5.5 RU; in assay [7], -1.7 RU; in assay [9] it was 0.4 RU; in assay [8], 3.1 RU. For the same molecule, the “Corrected response (RU), Mean” value in assay [6] was determined as 0.6 RU.

B15: anti-CD20 (rituximab) human IgG1 L234T/L235K/G236R (antibody)
heavy: B1 heavy with Q238T, V239K
light: B1 light
notes: EU numbering; also called 2-58; copies: 2 + 2
With B15, the “Corrected and normalised response (% of wild-type reference)” value in assay [1] was 100 % of wild-type reference; in [2], 99.2 % of wild-type reference; in [3] it was 100 % of wild-type reference; in [4], 100 % of wild-type reference. Moreover, the “Mean Absorbance” value in assay [5] is 0.126 absorbance (450 nm).

B16: anti-CD20 (rituximab) human IgG1 L234R/L235E/G236R (antibody)
heavy: B1 heavy with Q238R, V239E
light: B1 light
notes: EU numbering; also called 2-37; copies: 2 + 2
In the case of B16, the “Corrected and normalised response (% of wild-type reference)” value in assay [1] was 98.4 % of wild-type reference; in assay [2], 99 % of wild-type reference; in assay [3], 98.6 % of wild-type reference; in assay [4], 97.8 % of wild-type reference. Further, the “Mean Absorbance” value in assay [5] is 0.048 absorbance (450 nm).

B17: anti-CD20 human IgG1 L234G/L235S/G236R (antibody)
heavy: B1 heavy with Q238G, V239S
light: B1 light
notes: also called 2-19; 1-59
On to B17, for which the “Corrected response (RU)” value is 5.8 RU in the assay with human FcγRIIIA (F158), -0.1 RU in assay [7], 2.7 RU in [9] and 3.1 RU in assay [8].
